1 molecule from publication PMC5550728 can be followed below.

In the test the target is mouse Cav1.3 α1 subunit expressed in HEK cells (mouse) (UniProt Q99246).
mouse Cav1.3 α1 subunit expressed in HEK cells (mouse), sequence (Q99246 whole entry): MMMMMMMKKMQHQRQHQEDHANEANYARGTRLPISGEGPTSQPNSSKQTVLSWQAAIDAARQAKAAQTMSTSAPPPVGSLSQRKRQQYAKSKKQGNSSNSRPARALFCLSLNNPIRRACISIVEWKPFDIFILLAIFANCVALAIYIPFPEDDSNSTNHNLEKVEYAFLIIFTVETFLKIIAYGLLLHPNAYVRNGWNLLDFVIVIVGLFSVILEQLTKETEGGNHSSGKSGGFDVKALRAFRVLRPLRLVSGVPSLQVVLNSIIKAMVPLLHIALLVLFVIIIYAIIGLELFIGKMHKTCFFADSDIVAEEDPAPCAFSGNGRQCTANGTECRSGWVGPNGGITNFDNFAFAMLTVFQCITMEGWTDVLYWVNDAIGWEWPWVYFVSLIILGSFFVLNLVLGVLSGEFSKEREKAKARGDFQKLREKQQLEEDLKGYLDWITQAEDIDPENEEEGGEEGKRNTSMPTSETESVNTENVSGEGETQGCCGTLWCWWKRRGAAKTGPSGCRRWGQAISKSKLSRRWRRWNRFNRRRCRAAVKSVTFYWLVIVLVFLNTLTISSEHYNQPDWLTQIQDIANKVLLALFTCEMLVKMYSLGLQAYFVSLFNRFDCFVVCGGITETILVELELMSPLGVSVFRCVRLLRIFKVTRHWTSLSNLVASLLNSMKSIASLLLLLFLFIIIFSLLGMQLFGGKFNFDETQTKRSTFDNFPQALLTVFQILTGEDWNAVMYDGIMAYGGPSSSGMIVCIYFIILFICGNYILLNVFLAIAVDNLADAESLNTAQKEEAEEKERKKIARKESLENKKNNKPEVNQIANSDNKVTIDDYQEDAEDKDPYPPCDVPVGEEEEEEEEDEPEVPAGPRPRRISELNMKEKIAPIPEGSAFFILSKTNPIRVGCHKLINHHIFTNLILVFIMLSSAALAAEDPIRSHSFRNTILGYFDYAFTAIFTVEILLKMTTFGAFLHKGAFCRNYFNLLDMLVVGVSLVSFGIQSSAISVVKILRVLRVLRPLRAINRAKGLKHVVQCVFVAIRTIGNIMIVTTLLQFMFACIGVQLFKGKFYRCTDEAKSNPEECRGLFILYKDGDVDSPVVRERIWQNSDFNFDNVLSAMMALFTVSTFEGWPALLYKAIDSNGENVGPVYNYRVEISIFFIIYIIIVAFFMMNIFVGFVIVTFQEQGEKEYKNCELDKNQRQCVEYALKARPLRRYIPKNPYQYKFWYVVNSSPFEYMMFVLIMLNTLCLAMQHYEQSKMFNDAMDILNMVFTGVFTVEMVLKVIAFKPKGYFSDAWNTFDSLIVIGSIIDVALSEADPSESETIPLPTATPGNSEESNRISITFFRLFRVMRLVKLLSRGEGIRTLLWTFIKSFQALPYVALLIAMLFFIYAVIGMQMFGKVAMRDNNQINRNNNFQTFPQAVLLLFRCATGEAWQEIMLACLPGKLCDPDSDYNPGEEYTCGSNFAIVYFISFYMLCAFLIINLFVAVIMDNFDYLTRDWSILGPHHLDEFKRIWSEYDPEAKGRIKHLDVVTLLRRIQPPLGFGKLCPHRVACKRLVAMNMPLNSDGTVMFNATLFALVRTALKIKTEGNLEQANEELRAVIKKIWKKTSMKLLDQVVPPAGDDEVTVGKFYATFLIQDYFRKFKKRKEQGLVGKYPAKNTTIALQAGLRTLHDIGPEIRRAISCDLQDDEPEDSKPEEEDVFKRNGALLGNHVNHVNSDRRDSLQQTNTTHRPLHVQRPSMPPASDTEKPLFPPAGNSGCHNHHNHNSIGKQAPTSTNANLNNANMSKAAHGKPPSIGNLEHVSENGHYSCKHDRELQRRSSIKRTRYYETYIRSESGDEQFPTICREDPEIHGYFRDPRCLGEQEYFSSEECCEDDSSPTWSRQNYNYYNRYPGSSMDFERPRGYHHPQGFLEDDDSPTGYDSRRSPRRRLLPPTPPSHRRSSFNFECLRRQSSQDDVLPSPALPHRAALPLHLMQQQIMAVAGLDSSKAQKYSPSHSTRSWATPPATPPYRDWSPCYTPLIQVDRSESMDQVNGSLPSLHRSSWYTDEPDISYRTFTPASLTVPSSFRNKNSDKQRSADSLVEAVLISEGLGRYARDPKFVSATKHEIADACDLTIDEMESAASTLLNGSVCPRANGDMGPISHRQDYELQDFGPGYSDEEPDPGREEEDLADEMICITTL

B1: human RS1 (wild type) expressed in HEK cells (natural protein)
chain: STEDEGEDPWYQKACKCDCQGGPNALWSAGATSLDCIPECPYHKPLGFESGEVTPDQITCSNPEQYVGWYSSWTANKARLNSQGFGCAWLSKFQDSSQWLQIDLKEIKVISGILTQGRCDIDEWMTKYSVQYRTDERLNWIYYKDQTGNNRVFYGNSDRTSTVQNLLRPPIISRFIRLIPLGWHVRIAIRMELLECVSKCA
For the molecule B1, the shift of the current-membrane voltage relationship (voltage-dependent activation) of Cav1.3-LTCCs on co-transfection with RS1, HEK cells was -10 mV.
